In article PMC7521599 one finds Kd and stoichiometry N data, which are given here for 3 molecules.

By Kd is commonly meant the concentration at which binding is half-saturated. By stoichiometry N is commonly meant the number of molecules, sites or subunits per partner or assembly.

Experiment [1] concerns the target Skp1 (OCP2) (Cavia porcellus) (UniProt P63209). The settings on record: cited from earlier work.
Experiment [2] has as its target Skp1ΔΔ (doubly truncated Dictyostelium Skp1A: Δinternal loop/ΔC-terminus) (Dictyostelium discoideum) (UniProt P52285). Description: AUC.
Experiment [3] addresses T1, Dictyostelium discoideum Skp1A (Dictyostelium discoideum), P52285.
T1 chain: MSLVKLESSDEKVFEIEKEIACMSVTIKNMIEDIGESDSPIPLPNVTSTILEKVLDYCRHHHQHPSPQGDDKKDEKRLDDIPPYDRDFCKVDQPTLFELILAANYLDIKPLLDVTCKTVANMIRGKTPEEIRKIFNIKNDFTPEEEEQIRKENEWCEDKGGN
Description: AUC. The settings on record: remark: other sources report otherwise.

As to Skp1 (OCP2) (from UniProt P63209), in experiment [1], the equilibrium dissociation constant (Kd) is 1100 nM.

For “Skp1ΔΔ (doubly truncated Dictyostelium Skp1A: Δinternal loop/ΔC-terminus) (from UniProt P52285 1-125) (domain or fragment)”, the stoichiometry N in experiment [2] came to 2.

B1: Dictyostelium discoideum Skp1A, P52285 1-162 (natural protein)
chain: T1 chain
In experiment [3], B1 registered a dissociation constant Kd of 2500 nM and a stoichiometry N of 2.
